Test results reported in publication PMC7060279, “CCN1 is an opsonin for bacterial clearance and a direct activator of Toll-like receptor signaling” (Nature Communications, 2020).

Columns and labels:
[1] = molecular target: T1, human recombinant TLR2 protein (human, UniProt O60603 21-588); experiment: SPR; Biacore T-200; TLR2, TLR4 and integrin αvβ3 immobilised on a CM5 chip by amine coupling; CCN1 as analyte at 25 µl per min, 25 °C, phosphate buffer with 350 mM NaCl, 0.5 mM CaCl2, 0.5 mM MgCl2, 10 µg per ml BSA; global fit to 1:1 Langmuir model, KD = kd/ka; conditions: both partners purified
T1 construct: Toll-like receptor 2, human, recombinant protein from R&D systems; also called hTLR2; source: bought: R&D systems

[2] = molecular target: T2, human recombinant TLR4 protein (without MD2) (human, UniProt O00206 24-631); experiment: as above; conditions: both partners purified
T2 construct: also called hTLR4; source: bought: R&D systems
T2 sequence (O00206 24-631): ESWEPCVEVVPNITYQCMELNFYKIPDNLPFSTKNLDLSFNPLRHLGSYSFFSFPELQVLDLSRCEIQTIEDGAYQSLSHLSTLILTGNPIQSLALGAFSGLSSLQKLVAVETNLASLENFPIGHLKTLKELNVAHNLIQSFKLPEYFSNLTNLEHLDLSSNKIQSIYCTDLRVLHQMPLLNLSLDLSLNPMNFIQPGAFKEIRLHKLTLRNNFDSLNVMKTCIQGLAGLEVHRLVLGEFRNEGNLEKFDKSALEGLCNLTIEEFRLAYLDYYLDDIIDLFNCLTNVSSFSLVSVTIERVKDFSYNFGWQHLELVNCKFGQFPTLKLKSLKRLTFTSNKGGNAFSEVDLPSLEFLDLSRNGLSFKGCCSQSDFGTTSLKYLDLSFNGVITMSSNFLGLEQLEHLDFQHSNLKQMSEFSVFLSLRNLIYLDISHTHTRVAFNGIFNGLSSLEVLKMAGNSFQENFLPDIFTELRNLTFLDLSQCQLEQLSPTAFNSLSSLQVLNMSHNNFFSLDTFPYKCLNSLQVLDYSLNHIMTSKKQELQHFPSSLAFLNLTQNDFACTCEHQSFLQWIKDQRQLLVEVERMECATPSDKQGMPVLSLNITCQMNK

T1 sequence (O60603 21-588): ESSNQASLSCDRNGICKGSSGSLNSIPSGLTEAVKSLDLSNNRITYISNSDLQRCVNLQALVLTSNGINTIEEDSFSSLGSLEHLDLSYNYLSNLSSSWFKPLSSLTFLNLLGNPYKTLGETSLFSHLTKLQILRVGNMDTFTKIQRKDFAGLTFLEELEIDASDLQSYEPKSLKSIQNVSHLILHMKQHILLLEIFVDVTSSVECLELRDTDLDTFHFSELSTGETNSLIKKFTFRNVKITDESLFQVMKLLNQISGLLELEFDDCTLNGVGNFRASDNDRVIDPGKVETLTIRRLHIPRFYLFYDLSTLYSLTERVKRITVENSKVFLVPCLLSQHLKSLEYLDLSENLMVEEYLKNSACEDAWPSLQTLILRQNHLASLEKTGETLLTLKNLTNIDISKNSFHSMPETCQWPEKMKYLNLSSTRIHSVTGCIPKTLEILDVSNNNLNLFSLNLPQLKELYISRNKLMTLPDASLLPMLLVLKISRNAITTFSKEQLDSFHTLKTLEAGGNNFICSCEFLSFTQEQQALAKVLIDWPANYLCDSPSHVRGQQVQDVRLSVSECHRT

B1: CCN1-WT (recombinant matricellular protein CCN1) (natural protein, UniProt P18406 25-379, looked up)
chain: TCPAACHCPLEAPKCAPGVGLVRDGCGCCKVCAKQLNEDCSKTQPCDHTKGLECNFGASSTALKGICRAQSEGRPCEYNSRIYQNGESFQPNCKHQCTCIDGAVGCIPLCPQELSLPNLGCPNPRLVKVSGQCCEEWVCDEDSIKDSLDDQDDLLGLDASEVELTRNNELIAIGKGSSLKRLPVFGTEPRVLFNPLHAHGQKCIVQTTSWSQCSKSCGTGISTRVTNDNPECRLVKETRICEVRPCGQPVYSSLKKGKKCSKTKKSPEPVRFTYAGCSSVKKYRPKYCGSCVDGRCCTPLQTRTVKMRFRCEDGEMFSKNVMMIQSCKCNYNCPHPNEASFRLYSLFNDIHKFRD
notes: CCN1 (CYR61), 40 kDa matricellular protein with IGFBP, vWC, TSR and CT domains; also called CYR61; Cyr61
- Kd [1]: 227 nM
- Kd [2]: 291 nM
